In PMC6957486 one finds stoichiometry N data, which are given here for 2 substances.

In assay [1] the target is photosystem I (PSI) core from H. hongdechloris grown under white light, one monomer of the trimer (Halomicronema hongdechloris). The assay can be described thus: cryo-EM structure; single particle analysis of PSI trimers purified whole from thylakoid membranes; 50 mM MES (pH 6.0), 5 mM CaCl2, 0.2-2.0% sucrose, 0.01% β-DDM; grids washed without sucrose and β-DDM; 2.35 Å (white PSI) and 2.41 Å (far-red PSI).

The target of assay [2] is photosystem I (PSI) core from H. hongdechloris grown under far-red light, one monomer of the trimer (Halomicronema hongdechloris). The description is as above.

As to “photosystem I (PSI) core from H. hongdechloris grown under white light, one monomer of the trimer (from UniProt A0A1Z3HPE3 1-81; A0A1Z3HHI7 1-142; A0A1Z3HI16 1-68) (complex)”, the stoichiometry N in assay [1] came out at 3.

As to “photosystem I (PSI) core from H. hongdechloris grown under far-red light, one monomer of the trimer (from UniProt A0A1Z3HPE3 1-81; A0A1Z3HHI7 1-142; A0A1Z3HI16 1-68; A0A1Z3HR36 1-96) (complex)”, the stoichiometry N in assay [2] came out at 3.
